From PMC10743472

Target: CLPP, ATP-dependent Clp protease proteolytic subunit, mitochondrial (mouse (endogenous in mouse tissues)) (UniProt O88696)
Assay: native gel or EMSA; complexome profiling: mitochondria of WT and CLPP-null mouse testis, brain and heart (sucrose gradients), solubilised with digitonin, blue native electrophoresis on a 3 to 18% gradient gel, 48 slices, label-free mass spectrometry; co-migration read from the profiles

Sequence of CLPP, ATP-dependent Clp protease proteolytic subunit, mitochondrial, O88696 53-272 (natural protein; other documents disagree on this pair) (O88696 53-272): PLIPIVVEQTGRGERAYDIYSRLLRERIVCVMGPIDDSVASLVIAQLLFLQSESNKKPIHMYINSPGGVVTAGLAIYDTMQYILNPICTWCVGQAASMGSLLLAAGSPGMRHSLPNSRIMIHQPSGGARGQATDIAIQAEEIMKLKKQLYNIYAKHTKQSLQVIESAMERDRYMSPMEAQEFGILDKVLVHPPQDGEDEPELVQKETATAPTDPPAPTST

CLPP, ATP-dependent Clp protease proteolytic subunit, mitochondrial, O88696 53-272 (natural protein; other documents disagree on this pair)
stoichiometry N: 7
